Measured values: PMC7222407

Molecular target: Cu,Zn superoxide dismutase (SOD1) from Chionodraco hamatus (Chionodraco hamatus)
Test: SEC; gel exclusion chromatography on a Sephadex G-75 column against standards (bovine serum albumin, ovalbumin, chymotrypsinogen A, cytochrome c); native mass compared with the monomer mass from SDS-PAGE with 2-mercaptoethanol and MALDI-TOF

Cu,Zn superoxide dismutase (SOD1) from Chionodraco hamatus (enzyme)
stoichiometry N: 2
